Assay results reported in the RNAGym collection of RNA variant scans (doi:10.7554/elife.90254).

B1: LINE1-full (parent)
chain: UACGUAGGUGGUUUUCCCCUGAUAGUGCUAAGGGGGCCUGGAAGUUUGGACUGGGCAGAGCUCAACACAGCGUGGCAAAGUGGCUGUGGCUAGACUGCCUCUCUGGAUUCCUCGUCACUCAGCAGGGCAUCUCUGAGAGAAAUGCC

Variants of: B1
Test: self-cleavage, relative activity (ratio to wild type); higher = more cleavage; in vitro, sequencing; the parent is a self-cleaving ribozyme

Variant	self-cleavage
U108C C120A	1.45
G105U U143A	1.34
C103A A117G	1.49
A107G U130C	2.26
U108C U119C	2
U108C G126U	2.03
U108C A141G	1.65
U104C G125A	1.28
U104C U115C	1.92
U108A A138G	1.79
U102C A136C	0.97
U102C A136U	1.8
U102A C131U	1.26
A107U C113U	0.69
U108C A121G	1.68
U108C A121U	2.15
G105C U132C	1.53
U109A A117G	1.42
U109A A117U	1.51
C103A A142G	1.41
U102C U108C	1.15
U102C U108A	1.57
U102C A141G	1.39
A107U A121G	1.62

Variant	self-cleavage
U108C C113A	1.45
G105A G114A	0.75
G105A G114C	1.42
G105A U130C	0.96
A107G A138G	1.42
A107U G127A	0.93
U109C U115A	0.82
U109C U115C	1.22
U109C A136U	1.45
U104C C133U	1.72
A107G G135A	1.64
A107C U115C	1.38
A107G G126C	2.78
A107G G126U	1.48
A107G U132A	0.88
U109G U119C	0.49
A107G A140G	1.87
G105U A107C	2.34
U104A U108A	1
C110G	1.04
C110U	1.51
C110A	1.35
G105A A129C	2.69
U109G A121G	0

Variant	self-cleavage
U108C G127A	1.64
C103U U115A	1.72
C103U U115C	1.51
C103U G114C	1.5
U102C C133U	0.47
U109C G114U	1.33
U108C A138G	1.8
A107G A124G	0.96
U104C C120U	1.45
C110U A141U	0.84
U108G U130A	0.77
U102C A121G	1.06
U108A U130A	0.38
U102A U109A	1.03
U102A U109C	1.31
G105C A140G	1.83
C103U A121G	1.58
U104A C118U	0.84
U104G C113U	0.83
C110A U119C	1.51
A107U U112A	2.03
U104C A124U	1.76
U108C U115C	1.86
A107G G137U	2.3

Variant	self-cleavage
A107G G139A	1.19
A107G G139U	2.42
U102C G126A	1.65
U102C G126U	1.59
U104C U134C	1.62
U108A A117G	1.97
U109A U130C	1.54
U102C U134A	1.59
U102C U134C	1.55
U104G A140G	0.73
A107G C118U	1.56
U108C C111A	1.76
G106U A141G	0.83
U104C U108C	2.07
U102C G105A	2.14
U108A U115C	1.52
U102A C145U	1.04
U109A G126A	1.34
U109C U130A	1.24
U109C U130C	1.49
U104C A136U	1.91
U108C C123U	2.22
A107U A141G	1.52
U102A U119C	2.01

Variant	self-cleavage
U109A A142G	1.39
C110U U132C	1.45
A107G C116A	1.71
G106A U132A	0.61
G106A U132G	1.67
U108A U143C	1.32
U102C U132C	1.75
C103U U134C	1.48
U109A U143C	1.8
U109A U143A	1.75
U104G U115A	0.87
U102C C123U	1.21
A107G U109C	1.14
A107G G125U	1.96
G105A	1.43
G105C	1.59
G105U	1.37
U104A A107U	1.31
U104C A142G	1.81
G105A A136G	1.28
A107G A121U	1.28
G106A A121G	1.78
A107U A142G	2.36
U108C C110A	1.49

Variant	self-cleavage
U109G C145A	0.34
U104A C116U	0.9
U102C U109C	1.38
U109C U143A	1.18
U109C U143G	0.87
C110U G127A	1.35
C110A G139C	1.08
C110A G139A	1.17
G105A A121U	1.46
G106A	1.48
G106U	1.05
G106C	1.37
U104A U119A	1.23
U104A A117G	1.67
U104A C123U	1.51
U109A A140U	1.22
A107G C110A	1.13
U109A A141G	1.76
U108C C131U	2.2
C103U A142C	1.23
U108C A142G	1.94
C110G A129G	1.36
U108A A142G	1.55
U104C C113U	1.8

Variant	self-cleavage
U104C C113A	2.01
U104A C131U	1.55
G105A U109C	1.46
U109C C116U	1.5
G105U A117G	1.74
G106A A124U	1.54
U109C U132A	1.14
U109C U132C	1.03
U104C G105U	1.66
G106A C128U	1.7
U108A U132G	2.7
U104A U130A	0.89
C111A	1.25
U104G U130C	0.75
U104C U130G	1.5
U109G G127A	1.53
G105U U132C	0
U109A C123U	1.34
U104A A140U	1.03
U104A U132C	1.08
U104A U132A	1.64
A107U A138G	1.71
C110A A138G	0.95
